These results are taken from patent US20100048462A1, “TRUNCATED PTH PEPTIDES WITH A CYCLIC CONFORMATION” (Zealand Pharma A/S, priority 2006, published 2010).

Read-outs that look alike come from different tables or passages of the source. Bridge positions count the residues as written; N and C are the ends. Square brackets hold non-standard residues; d marks the D form. hArg = N=C(N)NCCCC[C@H](N)C(=O)O; Ac5c = NC1(C(=O)O)CCCC1; Aib = CC(C)(N)C(=O)O

Assay in all cases: cell-based or functional assay
Assay [1] addresses PTH receptor 1 on MC3T3-E1 cells (murine) (UniProt P41593).
The target of another assay is CYP2D6 (Homo sapiens, UniProt P10635).
Sequence of CYP2D6 (P10635 whole entry): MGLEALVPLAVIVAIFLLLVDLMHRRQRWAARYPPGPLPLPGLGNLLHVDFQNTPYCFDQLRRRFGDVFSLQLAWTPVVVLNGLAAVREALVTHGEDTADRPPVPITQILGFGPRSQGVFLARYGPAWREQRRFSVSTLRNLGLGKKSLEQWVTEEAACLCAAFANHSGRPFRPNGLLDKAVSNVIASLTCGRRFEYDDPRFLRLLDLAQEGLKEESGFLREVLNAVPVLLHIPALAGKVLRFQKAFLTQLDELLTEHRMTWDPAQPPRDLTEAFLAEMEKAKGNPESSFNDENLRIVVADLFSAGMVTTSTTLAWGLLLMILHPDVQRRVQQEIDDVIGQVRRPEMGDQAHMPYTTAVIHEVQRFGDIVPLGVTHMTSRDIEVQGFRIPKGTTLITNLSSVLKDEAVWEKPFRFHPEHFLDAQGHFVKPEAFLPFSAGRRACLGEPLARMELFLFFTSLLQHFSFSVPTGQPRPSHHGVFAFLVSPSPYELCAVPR
The target in a further assay is Saos-2 PTH1R (UniProt Q03431).
Sequence of Saos-2 PTH1R (Q03431 27-593 limits assumed): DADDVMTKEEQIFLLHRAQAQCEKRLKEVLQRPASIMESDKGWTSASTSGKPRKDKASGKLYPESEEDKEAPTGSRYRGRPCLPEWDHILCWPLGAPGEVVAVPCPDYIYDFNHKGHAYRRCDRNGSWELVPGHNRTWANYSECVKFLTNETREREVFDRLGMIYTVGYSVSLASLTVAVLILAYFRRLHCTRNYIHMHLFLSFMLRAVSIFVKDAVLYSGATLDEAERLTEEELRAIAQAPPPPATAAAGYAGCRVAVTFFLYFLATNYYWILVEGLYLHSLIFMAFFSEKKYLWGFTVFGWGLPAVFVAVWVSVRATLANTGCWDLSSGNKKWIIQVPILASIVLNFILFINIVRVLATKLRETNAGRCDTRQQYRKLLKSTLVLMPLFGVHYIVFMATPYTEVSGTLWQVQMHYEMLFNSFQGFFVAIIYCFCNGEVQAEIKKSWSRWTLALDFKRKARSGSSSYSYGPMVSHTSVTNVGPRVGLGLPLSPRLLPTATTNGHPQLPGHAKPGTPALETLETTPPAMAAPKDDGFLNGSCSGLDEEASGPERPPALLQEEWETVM

Sequence of PTH receptor 1 on MC3T3-E1 cells (murine) (P41593 27-591): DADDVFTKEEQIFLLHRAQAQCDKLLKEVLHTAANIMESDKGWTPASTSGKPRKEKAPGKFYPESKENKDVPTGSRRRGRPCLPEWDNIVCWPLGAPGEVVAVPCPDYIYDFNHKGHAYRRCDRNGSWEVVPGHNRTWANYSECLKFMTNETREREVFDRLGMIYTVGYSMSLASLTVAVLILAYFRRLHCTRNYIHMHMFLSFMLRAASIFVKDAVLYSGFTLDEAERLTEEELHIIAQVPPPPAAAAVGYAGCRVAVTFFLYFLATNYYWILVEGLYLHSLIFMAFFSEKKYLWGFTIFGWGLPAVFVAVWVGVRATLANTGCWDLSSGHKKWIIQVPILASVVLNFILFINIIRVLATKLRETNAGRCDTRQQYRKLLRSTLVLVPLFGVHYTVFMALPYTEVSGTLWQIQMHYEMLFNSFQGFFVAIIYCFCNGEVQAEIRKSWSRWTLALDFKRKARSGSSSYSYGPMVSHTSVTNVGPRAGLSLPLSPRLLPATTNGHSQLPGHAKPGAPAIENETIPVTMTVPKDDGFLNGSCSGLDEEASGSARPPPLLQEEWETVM

Turning to PTH(1-34) (peptide), the Emax, cAMP efficacy assay in MC3T3-E1 cells in assay [1] came out at 4.4 pmol/well.
As for “H-Ac5c-Val-Aib-Glu-Ile-Gln-Leu-Met-His-Gln-Har-Ala-Lys( )-Trp-Leu-Asp( )-NH2 (peptide)”, in assay [1], the Emax, cAMP efficacy assay in MC3T3-E1 cells was found to be 5 pmol/well and the pEC50, cAMP efficacy assay in MC3T3-E1 cells was 8 -log(M). Besides, the CYP2D6 activity (% of vehicle), dextrorphan formation rate in human liver microsomes, 10 µM peptide with CYP2D6 was 83 % of vehicle. Moreover, in the assay with Saos-2 PTH1R, the Emax, cAMP efficacy assay in Saos-2 cells (30T, trifluoroacetate salt) (relative to control (SEQ ID NO: 32)) was 1.04 and the pEC50, cAMP efficacy assay in Saos-2 cells (30T, trifluoroacetate salt) was 7.09 -log(M).
Take “H-Ac5c-Val-Aib-Glu-Ile-Gln-Leu-Met-His-Glu-Har-Ala-Lys( )-Trp-Leu-Asn-Asp( )-NH2 (peptide)”: in the assay with CYP2D6, the CYP2D6 activity (% of vehicle), dextrorphan formation rate in human liver microsomes, 10 µM peptide was 83 % of vehicle. In the assay with Saos-2 PTH1R, the Emax, cAMP efficacy assay in Saos-2 cells (24T, trifluoroacetate salt) (relative to control (SEQ ID NO: 32)) turned out to be 1.4 and the pEC50, cAMP efficacy assay in Saos-2 cells (24T, trifluoroacetate salt) is 6.9 -log(M).
Take “(H-Ac5c-Val-Aib-Glu-Ile-Gln-Leu-Met-His-Gln-Har-Ala-Lys( )-Trp-Leu-Asp( )-NH2)2 (peptide)”: in assay [1], the EC50, cAMP in an osteoblast-like cell line (MC3T3-E1) was found to be 1 nM; the Emax, cAMP efficacy assay in MC3T3-E1 cells came out at 5 pmol/well; the agonist potency relative to SEQ ID NO: 30, cAMP in MC3T3-E1 cells (fold stronger) was determined as 8; the pEC50, cAMP efficacy assay in MC3T3-E1 cells was 8.9 -log(M). Further, in the assay with Saos-2 PTH1R, the Emax, cAMP efficacy assay in Saos-2 cells (33T, trifluoroacetate salt) (relative to control (SEQ ID NO: 32)) amounted to 1.1 and the pEC50, cAMP efficacy assay in Saos-2 cells (33T, trifluoroacetate salt) was 7.88 -log(M).

B1: H-Ac5c-Val-Aib-Glu-Ile-Gln-Leu-Val-His-Gln-Har-Ala-Lys( )-Trp-Leu-Asn-Asp( )-NH2 (peptide)
chain: H-[Ac5c]V[Aib]EIQLVHQ[hArg]AKWLND-NH2
modifications: lactam 13-17
SMILES: CC[C@H](C)[C@H](NC(=O)[C@H](CCC(=O)O)NC(=O)C(C)(C)NC(=O)[C@@H](NC(=O)C1(N)CCCC1)C(C)C)C(=O)N[C@@H](CCC(N)=O)C(=O)N[C@@H](CC(C)C)C(=O)N[C@H](C(=O)N[C@@H](Cc1c[nH]cn1)C(=O)N[C@@H](CCC(N)=O)C(=O)N[C@@H](CCCCNC(=N)N)C(=O)N[C@@H](C)C(=O)N[C@H]1CCCCNC(=O)C[C@@H](C(N)=O)NC(=O)[C@H](CC(N)=O)NC(=O)[C@H](CC(C)C)NC(=O)[C@H](Cc2c[nH]c3ccccc23)NC1=O)C(C)C
Take B1: the CYP2D6 activity (% of vehicle), dextrorphan formation rate in human liver microsomes, 10 µM peptide in the assay with CYP2D6 is 92 % of vehicle. Besides, in the assay with Saos-2 PTH1R, the Emax, cAMP efficacy assay in Saos-2 cells (21T, trifluoroacetate salt) (relative to control (SEQ ID NO: 32)) is 1.4 and the pEC50, cAMP efficacy assay in Saos-2 cells (21T, trifluoroacetate salt) was 6.82 -log(M).

B2: H-Ac5c-Val-Aib-Glu-Ile-Gln-Leu-Met-His-Gln-Har-Ala-Lys-Trp-Leu-Asn-Asp-NH2 (peptide)
chain: H-[Ac5c]V[Aib]EIQLMHQ[hArg]AKWLND-NH2
SMILES: CC[C@H](C)[C@H](NC(=O)[C@H](CCC(=O)O)NC(=O)C(C)(C)NC(=O)[C@@H](NC(=O)C1(N)CCCC1)C(C)C)C(=O)N[C@@H](CCC(N)=O)C(=O)N[C@@H](CC(C)C)C(=O)N[C@@H](CCSC)C(=O)N[C@@H](Cc1c[nH]cn1)C(=O)N[C@@H](CCC(N)=O)C(=O)N[C@@H](CCCCNC(=N)N)C(=O)N[C@@H](C)C(=O)N[C@@H](CCCCN)C(=O)N[C@@H](Cc1c[nH]c2ccccc12)C(=O)N[C@@H](CC(C)C)C(=O)N[C@@H](CC(N)=O)C(=O)N[C@@H](CC(=O)O)C(N)=O
For the molecule B2, in assay [1], the EC50, cAMP in an osteoblast-like cell line (MC3T3-E1) was determined as 1 nM; the Emax, cAMP efficacy assay in MC3T3-E1 cells stood at 4.9 pmol/well; the agonist potency relative to SEQ ID NO: 2, cAMP in MC3T3-E1 cells is 6 fold weaker; the pEC50, cAMP efficacy assay in MC3T3-E1 cells was 9 -log(M). Moreover, in assay [1] (record 2), the Emax, cAMP efficacy assay in MC3T3-E1 cells came to 5.7 pmol/well and the pEC50, cAMP efficacy assay in MC3T3-E1 cells is 8.2 -log(M). The CYP2D6 activity (% of vehicle), dextrorphan formation rate in human liver microsomes, 10 µM peptide in the assay with CYP2D6 is 29 % of vehicle. Also, the CYP2D6 activity (% of vehicle), dextrorphan formation rate in human liver microsomes, 10 µM peptide with CYP2D6 (record 2) was 67 % of vehicle. Besides, in the assay with Saos-2 PTH1R, the Emax, cAMP efficacy assay in Saos-2 cells (2A, acetate salt) (relative to control (SEQ ID NO: 32)) amounted to 0.99; the Emax, cAMP efficacy assay in Saos-2 cells (2C, chloride salt) (relative to control (SEQ ID NO: 32)) was 0.94; the Emax, cAMP efficacy assay in Saos-2 cells (2T, trifluoroacetate salt) (relative to control (SEQ ID NO: 32)) came to 0.7; the Emax, cAMP efficacy assay in Saos-2 cells (42T, trifluoroacetate salt) (relative to control (SEQ ID NO: 32)) came out at 1.03. Moreover, in the assay with Saos-2 PTH1R, the pEC50, cAMP efficacy assay in Saos-2 cells (2A, acetate salt) was 8.2 -log(M); the pEC50, cAMP efficacy assay in Saos-2 cells (2C, chloride salt) is 8.18 -log(M); the pEC50, cAMP efficacy assay in Saos-2 cells (2T, trifluoroacetate salt) is 8.18 -log(M); the pEC50, cAMP efficacy assay in Saos-2 cells (42T, trifluoroacetate salt) was 7.68 -log(M).
